This note sets out measurements from publication doi:10.1101/2020.02.22.960815 (bioRxiv, 2020).

For orientation: stoichiometry N means a count of units in the complex or per binding partner.

Positions count from the first letter of the chain named. In names and notes the source's numbering stands.

The data set deals with the molecule itself. Put plainly: cryo-EM structure.

B1: human potassium-chloride co-transporter 3 (KCC3), full length, wild type (natural protein, UniProt Q9UHW9-2 1-1099, looked up)
chain: MPHFTVTKVEDPEEGAAASISQEPSLADIKARIQDSDEPDLSQNSITGEHSQLLDDGHKKARNAYLNNSNYEEGDEYFDKNLALFEEEMDTRPKVSSLLNRMANYTNLTQGAKEHEEAENITEGKKKPTKTPQMGTFMGVYLPCLQNIFGVILFLRLTWVVGTAGVLQAFAIVLICCCCTMLTAISMSAIATNGVVPAGGSYFMISRALGPEFGGAVGLCFYLGTTFAAAMYILGAIEIFLVYIVPRAAIFHSDDALKESAAMLNNMRVYGTAFLVLMVLVVFIGVRYVNKFASLFLACVIVSILAIYAGAIKSSFAPPHFPVCMLGNRTLSSRHIDVCSKTKEINNMTVPSKLWGFFCNSSQFFNATCDEYFVHNNVTSIQGIPGLASGIITENLWSNYLPKGEIIEKPSAKSSDVLGSLNHEYVLVDITTSFTLLVGIFFPSVTGIMAGSNRSGDLKDAQKSIPIGTILAILTTSFVYLSNVVLFGACIEGVVLRDKFGDAVKGNLVVGTLSWPSPWVIVIGSFFSTCGAGLQSLTGAPRLLQAIAKDNIIPFLRVFGHSKANGEPTWALLLTAAIAELGILIASLDLVAPILSMFFLMCYLFVNLACALQTLLRTPNWRPRFRYYHWALSFMGMSICLALMFISSWYYAIVAMVIAGMIYKYIEYQGAEKEWGDGIRGLSLSAARFALLRLEEGPPHTKNWRPQLLVLLKLDEDLHVKHPRLLTFASQLKAGKGLTIVGSVIVGNFLENYGEALAAEQTIKHLMEAEKVKGFCQLVVAAKLREGISHLIQSCGLGGMKHNTVVMGWPNGWRQSEDARAWKTFIGTVRVTTAAHLALLVAKNISFFPSNVEQFSEGNIDVWWIVHDGGMLMLLPFLLKQHKVWRKCSIRIFTVAQLEDNSIQMKKDLATFLYHLRIEAEVEVVEMHDSDISAYTYERTLMMEQRSQMLRHMRLSKTERDREAQLVKDRNSMLRLTSIGSDEDEETETYQEKVHMTWTKDKYMASRGQKAKSMEGFQDLLNMRPDQSNVRRMHTAVKLNEVIVNKSHEAKLVLLNMPGPPRNPEGDENYMEFLEVLTEGLERVLLVRGGGSEVITIYS
modifications: phosphorylated threonine built on T940 and T997 (from the cryo-EM map and mass spectra); carbohydrate chains
Turning to B1, the “stoichiometry N” value turned out to be 2.

B2: KCC3 dephosphorylation mimic mutant S45A/T940V/T997V (natural protein, human, UniProt Q9UHW9-2 1-1099, looked up)
chain: B1 chain with S45A, T940V, T997V
For B2, the binding result was “binds”.

B3: KCC3 phosphorylation mimic mutant S45E/T940E/T997E (natural protein, human, UniProt Q9UHW9-2 1-1099, looked up)
chain: B1 chain with S45E, T940E, T997E
Take B3: the binding result was “binds”.

B4: human potassium-chloride co-transporter 2 (KCC2), full length (natural protein, UniProt Q9H2X9-2 1-1116, looked up)
chain: MLNNLTDCEDGDGGANPGDGNPKESSPFINSTDTEKGKEYDGKNMALFEEEMDTSPMVSSLLSGLANYTNLPQGSREHEEAENNEGGKKKPVQAPRMGTFMGVYLPCLQNIFGVILFLRLTWVVGIAGIMESFCMVFICCSCTMLTAISMSAIATNGVVPAGGSYYMISRSLGPEFGGAVGLCFYLGTTFAGAMYILGTIEILLAYLFPAMAIFKAEDASGEAAAMLNNMRVYGTCVLTCMATVVFVGVKYVNKFALVFLGCVILSILAIYAGVIKSAFDPPNFPICLLGNRTLSRHGFDVCAKLAWEGNETVTTRLWGLFCSSRFLNATCDEYFTRNNVTEIQGIPGAASGLIKENLWSSYLTKGVIVERSGMTSVGLADGTPIDMDHPYVFSDMTSYFTLLVGIYFPSVTGIMAGSNRSGDLRDAQKSIPTGTILAIATTSAVYISSVVLFGACIEGVVLRDKFGEAVNGNLVVGTLAWPSPWVIVIGSFFSTCGAGLQSLTGAPRLLQAISRDGIVPFLQVFGHGKANGEPTWALLLTACICEIGILIASLDEVAPILSMFFLMCYMFVNLACAVQTLLRTPNWRPRFRYYHWTLSFLGMSLCLALMFICSWYYALVAMLIAGLIYKYIEYRGAEKEWGDGIRGLSLSAARYALLRLEEGPPHTKNWRPQLLVLVRVDQDQNVVHPQLLSLTSQLKAGKGLTIVGSVLEGTFLENHPQAQRAEESIRRLMEAEKVKGFCQVVISSNLRDGVSHLIQSGGLGGLQHNTVLVGWPRNWRQKEDHQTWRNFIELVRETTAGHLALLVTKNVSMFPGNPERFSEGSIDVWWIVHDGGMLMLLPFLLRHHKVWRKCKMRIFTVAQMDDNSIQMKKDLTTFLYHLRITAEVEVVEMHESDISAYTYEKTLVMEQRSQILKQMHLTKNEREREIQSITDESRGSIRRKNPANTRLRLNVPEETAGDSEEKPEEEVQLIHDQSAPSCPSSSPSPGEEPEGEGETDPEKVHLTWTKDKSVAEKNKGPSPVSSEGIKDFFSMKPEWENLNQSNVRRMHTAVRLNEVIVKKSRDAKLVLLNMPGPPRNRNGDENYMEFLEVLTEHLDRVMLVRGGGREVITIYS
Take B4: the “stoichiometry N” value amounted to 2.
